Measured values reported in patent US20190359710A1 (FRIEDRICH ALEXANDER UNIVERSIT T ERLANGEN N RNBERG, published 2019).
Numbering of substitutions follows the chain as printed.

B1: single chain triplebody SPM-2, hu(33-ds16-ds123RK) (other)
chain: EVQLVESGGGLIQPGGSLRLSCAASGFPLTSYGVSWVRQPPGKGLEWLGVIWGDGSTNYHSALISRFTISRDNSKNTLYLQMNSLRAEDTAVYYCARDTYYPYYAMDYWGQGTTVTVSSGGGGSGGGGSGGGGSDIQMTQSPSSLSASVGDRVTITCKASQDVSTAVAWYQQKPGKAPKLLIYSASYRYTGVPSRFSGSGSGTDFTLTISSLQPEDFATYYCQQHYSTPLTFGQGTKLEIKRGGGGSGGGGSGGGGSGGGGSDIVLTQSPSSLSASVGDRVTITCKASQSVDFDGDSFMNWYQQKPGKAPKLLIYTTSNLESGVPSRFSASGSGTDFTLTISSLQPEDFATYYCQQSNEDPYTFGCGTKVEIKRGGGGSGGGGSGGGGSGGGGSEVQLVESGGGDVQPGGSLRLSCAFSGFSLRTSGMGVGWIRQAPGKCLEWVAHIWWDDDKRYNPSVKGRFTISKDTSSNTVYLQMNSLRAEDTAVYYCAQINPAWFAYWGQGTLVTVSSGGGGSGGGGSGGGGSGGGGSEVQLVESGGGLVQPGGSLRLSCAASGFTFTDYYMSWVRQAPGKCLEWLALIRSKADGYTTEYSASVKGRFTISRDDSKNSLYLQMNSLKTEDTAVYYCARDAAYYSYYSPEGAMDYWGQGTSVTVSSGGGGSGGGGSGGGGSDIQMTQSPSSLSASVGDRVTITCKASQNVDSAVAWYQQKPGKAPKALIYSASYRYSGVPSRFSGSGSGTDFTLTISSLQPEDFATYYCQQYYSTPWTFGCGTKVEIKRGGGGSHHHHHH
notes: Trispecific single-chain triplebody made of three scFvs in tandem, produced in HEK293 F cells; also called 33-ds16-ds123 (SPM-2)
B2: humanized CD16-specific scFv variant 1/3 (Vk1 / VH3 frameworks, LH order, (Gly4Ser)4x linker) (scFv)
chain: DIVLTQSPSSLSASVGDRVTITCKASQSVDFDGDSFMNWYQQKPGKAPKLLIYTTSNLESGVPSRFSASGSGTDFTLTISSLQPEDFATYYCQQSNEDPYTFGQGTKVEIKRGGGGSGGGGSGGGGSGGGGSEVQLVESGGGDVQPGGSLRLSCAFSGFSLRTSGMGVGWIRQAPGKGLEWVAHIWWDDDKRYNPSVKGRFTISKDTSSNTVYLQMNSLRAEDTAVYYCAQINPAWFAYWGQGTLVTVSS
B3: triplebody hu[33-ds16-123] (other)
chain: EVQLVESGGGLIQPGGSLRLSCAASGFPLTSYGVSWVRQPPGKGLEWLGVIWGDGSTNYHSALISRFTISRDNSKNTLYLQMNSLRAEDTAVYYCARDTYYPYYAMDYWGQGTTVTVSSGGGGSGGGGSGGGGSDIQMTQSPSSLSASVGDRVTITCKASQDVSTAVAWYQQKPGKAPKLLIYSASYRYTGVPSRFSGSGSGTDFTLTISSLQPEDFATYYCQQHYSTPLTFGQGTKLEIKRGGGGSGGGGSGGGGSGGGGSDIVLTQSPSSLSASVGDRVTITCKASQSVDFDGDSFMNWYQQKPGKAPKLLIYTTSNLESGVPSRFSASGSGTDFTLTISSLQPEDFATYYCQQSNEDPYTFGCGTKVEIKRGGGGSGGGGSGGGGSGGGGSEVQLVESGGGDVQPGGSLRLSCAFSGFSLRTSGMGVGWIRQAPGKCLEWVAHIWWDDDKRYNPSVKGRFTISKDTSSNTVYLQMNSLRAEDTAVYYCAQINPAWFAYWGQGTLVTVSSGGGGSGGGGSGGGGSGGGGSEVQLVESGGGLVQPGGSLRLSCAASGFTFTDYYMSWVRQAPGKGLEWLALIRSKADGYTTEYSASVKGRFTISRDDSKNSLYLQMNSLKTEDTAVYYCARDAAYYSYYSPEGAMDYWGQGTSVTVSSGGGGSGGGGSGGGGSDIQMTQSPSSLSASVGDRVTITCKASQNVDSAVAWYQQKPGKAPKALIYSASYRYSGVPSRFSGSGSGTDFTLTISSLQPEDFATYYCQQYYSTPWTFGQGTKVEIKR
B4: candidate triplebody hu[33-ds16-ds123RK] before polishing of the sequence (other, not shown: small tags and cut ends)
chain: B3 chain with G576C, Q774C
notes: the list of removed pieces may not be complete; also called variant (f)

Legend:
[1] = target: T1, human CD16 (human, UniProt P08637 17-254); assay: affinity for CD16, method not named in the table (antigen on mammalian cells by the text)
T1 construct: whole, on cells; also called hu CD16; CHO16-10 CD16+

[2] = target: T2, human CD123 (alpha chain of the interleukin-3 receptor) (human, UniProt P26951 19-378); assay: affinity for CD123, method not named in the table (antigen on mammalian cells by the text)
T2 construct: also called 239 CD123+; HEK293.123

[3] = target: T3, human CD33 (human, UniProt P20138 18-364); assay: affinity for CD33, method not named in the table (antigen on mammalian cells by the text)
T3 construct: whole, on cells; also called U937 CD33+

[4] = target: T1, human CD16; assay: cytofluorimetry on CHO cells stably transfected with CD16
[5] = target: T2, human CD123 (alpha chain of the …); assay: calibrated flow cytometry on CD123-transfected HEK293 cells
Procedure: (§1) The remaining triplebodies (a), (b), (d) and (f) from the above list were further analyzed. Equilibrium binding constants (KD) of each of the component scFvs carried in these triplebodies were determined by calibrated flow cytometry (Table 5). Thermo-stability in human serum was evaluated by incubation in human serum at 37° C. in vitro, and the binding ability to CD33, CD16 and CD123 on antigen single-positive mammalian cells was measured by FACS-analysis. Residual binding capacity (in % of the starting value) was evaluated after incubation for various lengths of time (Table 5).
(§2) In the top 2 rows the variant humanized according to AHo was used, in the bottom 2 rows the variant humanized according to RK was used. U937 cells are single-positive for CD33; CHO16-10 cells are single-positive (stably transfected) variants for hu CD16; […] are a stably transfected variant of HEK293, single-positive for CD123; MOLM13 cells are a stable, human AML-derived cell line double-positive for CD123 and CD33. n = number of independent experiments performed. Numbers in the table are arithmetic means from n separate measurements ± the Standard Error of the Mean (SEM).

[6] = target: T3, human CD33; assay: calibrated flow cytometry on U937 cells (CD33 single-positive)
Procedure: as §1, §2

[7] = target: T1, human CD16; assay: calibrated flow cytometry on CHO16-10 cells (CD16 single-positive)
Procedure: as §1, §2

T2 sequence (P26951 19-378 limits assumed): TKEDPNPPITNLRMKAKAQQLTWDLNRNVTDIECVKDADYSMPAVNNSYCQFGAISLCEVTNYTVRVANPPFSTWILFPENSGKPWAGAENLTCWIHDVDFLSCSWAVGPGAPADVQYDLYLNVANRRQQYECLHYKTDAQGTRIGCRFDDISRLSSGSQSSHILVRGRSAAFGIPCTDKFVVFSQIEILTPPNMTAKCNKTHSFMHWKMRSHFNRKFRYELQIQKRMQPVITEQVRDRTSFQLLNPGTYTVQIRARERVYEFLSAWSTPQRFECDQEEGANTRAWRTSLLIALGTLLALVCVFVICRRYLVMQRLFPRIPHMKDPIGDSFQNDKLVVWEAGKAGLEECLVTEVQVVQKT
T3 sequence (P20138 18-364): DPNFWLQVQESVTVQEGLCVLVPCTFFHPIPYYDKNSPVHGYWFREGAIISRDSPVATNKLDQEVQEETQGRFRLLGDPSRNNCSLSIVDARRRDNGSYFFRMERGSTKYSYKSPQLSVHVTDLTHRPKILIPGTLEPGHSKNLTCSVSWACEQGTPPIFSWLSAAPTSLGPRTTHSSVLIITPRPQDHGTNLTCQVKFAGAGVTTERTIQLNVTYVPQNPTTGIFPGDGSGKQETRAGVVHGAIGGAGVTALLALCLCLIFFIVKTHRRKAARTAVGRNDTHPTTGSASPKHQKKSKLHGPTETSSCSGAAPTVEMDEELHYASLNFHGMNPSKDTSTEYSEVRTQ
T1 sequence (P08637 17-254): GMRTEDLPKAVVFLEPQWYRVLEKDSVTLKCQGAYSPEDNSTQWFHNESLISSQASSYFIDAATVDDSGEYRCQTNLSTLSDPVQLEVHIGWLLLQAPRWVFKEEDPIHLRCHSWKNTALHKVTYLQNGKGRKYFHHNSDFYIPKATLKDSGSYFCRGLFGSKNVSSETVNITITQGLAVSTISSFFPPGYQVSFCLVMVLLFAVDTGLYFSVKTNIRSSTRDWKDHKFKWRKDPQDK

Binder | Kd [1] | Kd [2] | Kd [3] | Kd [4] | Kd [5] | Kd [6] | Kd [7]
B1 | 35 nM | 32 nM | 23 nM |  |  |  | 
B2 |  |  |  | 12.7 nM |  |  | 
B3 | 13 nM | 13 nM | 53 nM |  | 11 nM | 49 nM | 11 nM
B4 |  |  |  |  | 9 nM | 31 nM | 18 nM
